According to publication PMC11585080 (ACS nano, 2019):

What was measured:
Format in all cases: physicochemical
[1] = Analytical ultracentrifugation
[2] = ThT fluorescence assay of Aβ1–40 aggregation
[3] = Phase diagram of Aβ1–40 aggregation in water/alcohol mixtures
[4] = representatively selected peak, 2% HFIP, 25 °C
[5] = 6% HFIP, with sonication, 37 °C
[6] = without TFE, with sonication, 10 μM Aβ1–40, 10 mM sodium phosphate buffer pH 7.5, 100 mM NaCl, 5 μM ThT, 37 °C, three independent measurements

With “Aβ1–40 oligomers: Aβ1–40 dissolved in 100% HFIP, diluted 10-fold with water; ThT-negative β-structured spherical oligomers” as the substance, how does the “molecular weight of small oligomers” value ([1]; calculated from s-value ~5.2 S) read?
Its value is ~ 70 kDa.

And the “molecular weight of large oligomers” value ([1]; calculated from s-value ~24.7 S)?
Its value is ~ 740 kDa.

And the “number of Aβ1–40 peptides forming small oligomers” value ([1]; from molecular weight ~70 kDa)?
The value was ~ 17.

And the “number of Aβ1–40 peptides forming large oligomers” value ([1]; from molecular weight ~740 kDa)?
The value was ~ 170.

What about the “sedimentation coefficient (s-value), large oligomers” value [1, 4] of the same substance?
Its value is ~ 24.7 S.

What about the “sedimentation coefficient (s-value), small oligomers” value [1, 4] of the same substance?
Its value is ~ 5.2 S.

And the “time of saturation of ThT fluorescence increase” value ([2]; oligomers + 10 mM sodium phosphate buffer pH 7.5, 100 mM NaCl, quiescent, 37 °C)?
Its value is ~ 35 h.

And the “increase in ThT intensity” value ([2]; oligomers + NaCl alone (50–2000 mM), no pH shift, continuous shaking)?
The value was “no increase”.

And the “change in ThT fluorescence intensity of oligomer solution” value ([2]; oligomers without buffer (pH ~4), ~2 days without agitation, 37 °C)?
The value was “no changes”.

With amyloid-β (1–40) [Aβ1–40] as the substance, how does the “solubility state at high alcohol concentrations” value ([3]; >40% TFE and >30% HFIP, regardless of extensive sonication) read?
Its value is “remained soluble”.

What about the amyloid-forming region ([3]; water/TFE mixtures, with sonication, 100 mM NaCl, pH 7.5) of the same substance?
The amyloid-forming region was 0–25 % TFE.

And the “lag time before sigmoidal increase in ThT fluorescence” value ([2]; 2% HFIP, quiescent, 10 μM, pH 7.5, 100 mM NaCl, 37 °C)?
The value was ~ 6 h.

And the “conversion rate constant (protofibrils to amyloid fibrils)” value [2, 5]?
Its value is 2.21 ± 0.85 h⁻¹.

And the “time at which the ThT reaction was completed” value [2, 5]?
The value was ~ 2 h.

What about the “change in intensity of ThT fluorescence” value ([2]; 6% HFIP, without sonication, after ~35 h, 37 °C) of the same substance?
Its value is “did not change”.

What about the “ThT fluorescence during incubation” value ([2]; 50% HFIP, without sonication, test tubes, pH 7.5, 100 mM NaCl, 37 °C) of the same substance?
Its value is “maintained a very low intensity”.

What about the “effect of sonication on ThT fluorescence” value ([2]; greater than 40% TFE, with sonication, 10 μM, pH 7.5, 100 mM NaCl, 37 °C) of the same substance?
Its value is “did not affect the ThT fluorescence”.

What about the “change in ThT-based kinetics and CD spectra” value ([2]; more than 25% TFE, quiescent, 10 μM, pH 7.5, 100 mM NaCl, 37 °C) of the same substance?
Its value is “no change”.

What about the “change in ThT fluorescence intensity after incubation” value ([2]; without TFE, quiescent, incubation ~2 days, 10 μM, pH 7.5, 100 mM NaCl, 37 °C) of the same substance?
The value was “no change”.

And the “elongation rate constant of amyloid fibrillation (ThT)” value [2, 6]?
Its value is ~ 10 h^−1.

What about the “lag time of amyloid fibrillation (ThT)” value [2, 6] of the same substance?
Its value is ~ 1 h.
